Data published in the Immune Epitope Database (IEDB).
Each block holds one sequence with its values, some of them ahead of it.

Tests used:
[1] = target: HLA-B*15:01; assay: IEDB peptide-MHC binding, purified MHC/direct/fluorescence; filed as Kd, often an IC50 or EC50 that approximates it; ≥ and ≤ were set here for values at or beyond the usual limits of such assays
[2] = target: HLA-B*08:01; assay: as above
[3] = target: HLA-A*03:01; assay: as above
[4] = target: HLA-A*69:01; assay: as above
[5] = target: HLA-B*44:02; assay: as above; details: source organism: Giardia lamblia ATCC 50803
[6] = target: HLA-A*11:01; assay: as above
[7] = target: HLA-A*30:01; assay: as above
[8] = target: HLA-A*01:01; assay: as above
[9] = target: HLA-A*26:01; assay: as above
[10] = target: HLA-A*02:01; assay: as above
[11] = target: HLA-B*07:02; assay: as above
[12] = target: HLA-B*40:01; assay: as above
[13] = target: HLA-B*58:01; assay: as above
[14] = target: HLA-B*27:05; assay: as above
[15] = target: HLA-B*46:01; assay: as above
[16] = target: HLA-B*15:09; assay: as above; details: source organism: Brucella suis ATCC 23445
[17] = target: HLA-B*48:01; assay: as above
[18] = target: HLA-A*31:01; assay: as above
[19] = target: HLA-B*18:01; assay: as above; details: source organism: Brucella abortus
[20] = target: HLA-B*38:01; assay: as above
[21] = target: HLA-B*57:01; assay: IEDB peptide-MHC binding, purified MHC/competitive/fluorescence; filed as Kd, often an IC50 or EC50 that approximates it; ≥ and ≤ were set here for values at or beyond the usual limits of such assays; details: source organism: Brucella melitensis bv. 1 str. Rev.1
[22] = target: HLA-A*69:01; assay: as above; details: source organism: Brucella melitensis bv. 1 str. Rev.1
[23] = target: HLA-B*15:17; assay: as above
[24] = target: HLA-A*02:06; assay: as above; details: source organism: Brucella melitensis bv. 1 str. Rev.1
[25] = target: HLA-A*11:01; assay: IEDB peptide-MHC binding, purified MHC/competitive/fluorescence; ≥ and ≤ were set here for values at or beyond the usual limits of such assays; details: source organism: Variola virus
[26] = target: HLA-B*57:01; assay: IEDB peptide-MHC binding, purified MHC/direct/fluorescence; filed as Kd, often an IC50 or EC50 that approximates it; ≥ and ≤ were set here for values at or beyond the usual limits of such assays; details: source organism: Camelpox virus M-96
[27] = target: HLA-A*68:02; assay: as above; details: source organism: Camelpox virus M-96
[28] = target: HLA-B*08:02; assay: as above; details: source organism: Variola virus
[29] = target: HLA-B*08:03; assay: as above; details: source organism: Variola virus
[30] = target: HLA-B*39:01; assay: as above; details: source organism: Camelpox virus M-96
[31] = target: HLA-B*15:01; assay: IEDB peptide-MHC binding, purified MHC/competitive/fluorescence; filed as Kd, often an IC50 or EC50 that approximates it; ≥ and ≤ were set here for values at or beyond the usual limits of such assays; details: source organism: Vaccinia virus WR
[32] = target: HLA-A*26:02; assay: as above; details: source organism: Vaccinia virus WR
[33] = target: HLA-B*35:01; assay: as above; details: source organism: Vaccinia virus WR
[34] = target: HLA-B*18:01; assay: as above; details: source organism: Vaccinia virus WR
[35] = target: HLA-A*01:01; assay: as above; details: source organism: Vaccinia virus WR
[36] = target: HLA-B*07:02; assay: as above; details: source organism: Vaccinia virus WR
[37] = target: HLA-B*83:01; assay: as above; details: source organism: Escherichia coli F11
[38] = target: HLA-A*03:01; assay: as above; details: source organism: Escherichia coli F11
[39] = target: HLA-B*15:42; assay: as above; details: source organism: Escherichia coli F11
[40] = target: HLA-A*31:01; assay: as above; details: source organism: Escherichia coli F11
[41] = target: HLA-A*32:15; assay: as above; details: source organism: Escherichia coli F11
[42] = target: HLA-B*45:06; assay: as above; details: source organism: Escherichia coli F11
[43] = target: HLA-A*68:23; assay: as above; details: source organism: Escherichia coli F11
[44] = target: HLA-A*24:03; assay: IEDB peptide-MHC binding, purified MHC/direct/fluorescence; filed as Kd, often an IC50 or EC50 that approximates it; ≥ and ≤ were set here for values at or beyond the usual limits of such assays; details: source organism: Corynebacterium glutamicum
[45] = source organism: Giardia lamblia ATCC 50803
[46] = source organism: Brucella abortus
[47] = source organism: Brucella suis ATCC 23445
[48] = source organism: Camelpox virus M-96
[49] = source organism: Corynebacterium glutamicum

Sequence: ASSWAPTQK
- Kd [1, 45]: ≥ 20 µM
- Kd [2, 45]: ≥ 20 µM
- Kd [3, 45]: 0.51 µM
- Kd [4, 45]: ≥ 20 µM
- Kd [5]: ≥ 20 µM
- Kd [6, 45]: 0.0175 µM
- Kd [7, 45]: 4.14 µM
- Kd [8, 45]: ≥ 20 µM
- Kd [9, 45]: ≥ 20 µM
- Kd [10, 45]: ≥ 20 µM
- Kd [11, 45]: ≥ 20 µM
- Kd [12, 45]: ≥ 20 µM
- Kd [13, 45]: ≥ 20 µM
- Kd [14, 45]: ≥ 20 µM

Sequence: FSDVSHWWQ
- Kd [1, 46]: ≥ 20 µM
- Kd [2, 47]: ≥ 20 µM
- Kd [15, 46]: ≥ 20 µM
- Kd [16]: ≥ 20 µM
- Kd [3, 46]: ≥ 20 µM
- Kd [17, 46]: ≥ 20 µM
- Kd [6, 46]: ≥ 20 µM
- Kd [18, 46]: ≥ 20 µM
- Kd [19]: ≥ 20 µM
- Kd [8, 46]: 0.404 µM
- Kd [9, 47]: ≥ 20 µM
- Kd [10, 46]: ≥ 20 µM
- Kd [20, 47]: ≥ 20 µM
- Kd [11, 46]: ≥ 20 µM
- Kd [12, 46]: ≥ 20 µM
- Kd [13, 46]: 2.09 µM
- Kd [14, 46]: ≥ 20 µM
- Kd [21]: ≥ 20 µM
- Kd [22]: ≥ 20 µM
- Kd ([23]; source organism: Brucella melitensis bv. 1 str. Rev.1): ≥ 20 µM
- Kd [24]: ≥ 20 µM

Sequence: IHIPGDTLF
- IC50 [25]: ≥ 152 µM
- Kd [26]: ≥ 20 µM
- Kd ([2]; source organism: Variola virus): ≥ 20 µM
- Kd [15, 48]: ≥ 20 µM
- Kd [4, 48]: ≥ 20 µM
- Kd [17, 48]: ≥ 20 µM
- Kd [27]: ≥ 20 µM
- Kd [28]: ≥ 20 µM
- Kd [29]: ≥ 20 µM
- Kd ([9]; source organism: Variola virus): ≥ 20 µM
- Kd [10, 48]: ≥ 20 µM
- Kd ([20]; source organism: Variola virus): 0.392 µM
- Kd [12, 48]: ≥ 20 µM
- Kd [13, 48]: ≥ 20 µM
- Kd [14, 48]: ≥ 20 µM
- Kd [30]: ≥ 20 µM
- Kd [31]: ≥ 20 µM
- Kd [32]: ≥ 20 µM
- Kd [33]: 0.366 µM
- Kd ([23]; source organism: Vaccinia virus WR): ≥ 20 µM
- Kd [34]: ≥ 20 µM
- Kd [35]: ≥ 20 µM
- Kd [36]: ≥ 5 µM

- Kd [37]: ≥ 5 µM
- Kd [38]: 0.078 µM
- Kd [39]: ≥ 5 µM
- Kd [40]: 0.0183 µM
- Kd [41]: 0.824 µM
- Kd [42]: ≥ 5 µM
- Kd [43]: 0.0002 µM
Sequence: MTYSHHACR

- Kd [1, 49]: ≥ 20 µM
- Kd [2, 49]: ≥ 20 µM
- Kd [3, 49]: ≥ 20 µM
- Kd [4, 49]: ≥ 20 µM
- Kd [6, 49]: ≥ 20 µM
- Kd [18, 49]: ≥ 20 µM
- Kd [44]: ≥ 20 µM
- Kd [7, 49]: 4.84 µM
- Kd [8, 49]: ≥ 20 µM
- Kd [9, 49]: ≥ 20 µM
- Kd [10, 49]: ≥ 20 µM
- Kd [12, 49]: ≥ 20 µM
- Kd [13, 49]: ≥ 20 µM
- Kd [14, 49]: ≥ 20 µM
Sequence: VHDREGNEV
